Test [1] has as its target b6f complex (monomer of 140 kD) (C. reinhardtii (endogenous)) (UniProt P23577). Description: native gel or EMSA.
In test [2] the target is b6f complex with cytochrome b6 C35V (C. reinhardtii (endogenous)) (UniProt P23577). Description: native gel or EMSA.

“b6f complex (monomer of 140 kD) (from UniProt P23577 32-317; Q00471 1-215; P23230 1-160)” had a stoichiometry N in test [1] of 2.

“b6f complex with cytochrome b6 C35V (from UniProt P23577 32-317; Q00471 1-215; P23230 1-160)” showed a stoichiometry N in test [2] of 2.

The record behind these values is publication PMC2712960.
